From publication PMC5173320

Molecular target: GFP-FLN90 (short 90 kDa isoform of Drosophila filamin/cheerio with an N terminus EGFP tag) (Drosophila)
Experiment: proximity ligation; in situ PLA (Duolink) in HEK293T cells co-expressing V5-dPak with GFP-FLN90 or GFP alone; fixed with 4% paraformaldehyde about 40 hr after transfection; mouse anti-V5 and rabbit anti-GFP; GFP+ cells scored as PLA+ if they had more than three puncta

Chain of GFP-FLN90 (short 90 kDa isoform of Drosophila filamin/cheerio with an N terminus EGFP tag) (Drosophila) (Q9VEN1 whole entry, canonical isoform): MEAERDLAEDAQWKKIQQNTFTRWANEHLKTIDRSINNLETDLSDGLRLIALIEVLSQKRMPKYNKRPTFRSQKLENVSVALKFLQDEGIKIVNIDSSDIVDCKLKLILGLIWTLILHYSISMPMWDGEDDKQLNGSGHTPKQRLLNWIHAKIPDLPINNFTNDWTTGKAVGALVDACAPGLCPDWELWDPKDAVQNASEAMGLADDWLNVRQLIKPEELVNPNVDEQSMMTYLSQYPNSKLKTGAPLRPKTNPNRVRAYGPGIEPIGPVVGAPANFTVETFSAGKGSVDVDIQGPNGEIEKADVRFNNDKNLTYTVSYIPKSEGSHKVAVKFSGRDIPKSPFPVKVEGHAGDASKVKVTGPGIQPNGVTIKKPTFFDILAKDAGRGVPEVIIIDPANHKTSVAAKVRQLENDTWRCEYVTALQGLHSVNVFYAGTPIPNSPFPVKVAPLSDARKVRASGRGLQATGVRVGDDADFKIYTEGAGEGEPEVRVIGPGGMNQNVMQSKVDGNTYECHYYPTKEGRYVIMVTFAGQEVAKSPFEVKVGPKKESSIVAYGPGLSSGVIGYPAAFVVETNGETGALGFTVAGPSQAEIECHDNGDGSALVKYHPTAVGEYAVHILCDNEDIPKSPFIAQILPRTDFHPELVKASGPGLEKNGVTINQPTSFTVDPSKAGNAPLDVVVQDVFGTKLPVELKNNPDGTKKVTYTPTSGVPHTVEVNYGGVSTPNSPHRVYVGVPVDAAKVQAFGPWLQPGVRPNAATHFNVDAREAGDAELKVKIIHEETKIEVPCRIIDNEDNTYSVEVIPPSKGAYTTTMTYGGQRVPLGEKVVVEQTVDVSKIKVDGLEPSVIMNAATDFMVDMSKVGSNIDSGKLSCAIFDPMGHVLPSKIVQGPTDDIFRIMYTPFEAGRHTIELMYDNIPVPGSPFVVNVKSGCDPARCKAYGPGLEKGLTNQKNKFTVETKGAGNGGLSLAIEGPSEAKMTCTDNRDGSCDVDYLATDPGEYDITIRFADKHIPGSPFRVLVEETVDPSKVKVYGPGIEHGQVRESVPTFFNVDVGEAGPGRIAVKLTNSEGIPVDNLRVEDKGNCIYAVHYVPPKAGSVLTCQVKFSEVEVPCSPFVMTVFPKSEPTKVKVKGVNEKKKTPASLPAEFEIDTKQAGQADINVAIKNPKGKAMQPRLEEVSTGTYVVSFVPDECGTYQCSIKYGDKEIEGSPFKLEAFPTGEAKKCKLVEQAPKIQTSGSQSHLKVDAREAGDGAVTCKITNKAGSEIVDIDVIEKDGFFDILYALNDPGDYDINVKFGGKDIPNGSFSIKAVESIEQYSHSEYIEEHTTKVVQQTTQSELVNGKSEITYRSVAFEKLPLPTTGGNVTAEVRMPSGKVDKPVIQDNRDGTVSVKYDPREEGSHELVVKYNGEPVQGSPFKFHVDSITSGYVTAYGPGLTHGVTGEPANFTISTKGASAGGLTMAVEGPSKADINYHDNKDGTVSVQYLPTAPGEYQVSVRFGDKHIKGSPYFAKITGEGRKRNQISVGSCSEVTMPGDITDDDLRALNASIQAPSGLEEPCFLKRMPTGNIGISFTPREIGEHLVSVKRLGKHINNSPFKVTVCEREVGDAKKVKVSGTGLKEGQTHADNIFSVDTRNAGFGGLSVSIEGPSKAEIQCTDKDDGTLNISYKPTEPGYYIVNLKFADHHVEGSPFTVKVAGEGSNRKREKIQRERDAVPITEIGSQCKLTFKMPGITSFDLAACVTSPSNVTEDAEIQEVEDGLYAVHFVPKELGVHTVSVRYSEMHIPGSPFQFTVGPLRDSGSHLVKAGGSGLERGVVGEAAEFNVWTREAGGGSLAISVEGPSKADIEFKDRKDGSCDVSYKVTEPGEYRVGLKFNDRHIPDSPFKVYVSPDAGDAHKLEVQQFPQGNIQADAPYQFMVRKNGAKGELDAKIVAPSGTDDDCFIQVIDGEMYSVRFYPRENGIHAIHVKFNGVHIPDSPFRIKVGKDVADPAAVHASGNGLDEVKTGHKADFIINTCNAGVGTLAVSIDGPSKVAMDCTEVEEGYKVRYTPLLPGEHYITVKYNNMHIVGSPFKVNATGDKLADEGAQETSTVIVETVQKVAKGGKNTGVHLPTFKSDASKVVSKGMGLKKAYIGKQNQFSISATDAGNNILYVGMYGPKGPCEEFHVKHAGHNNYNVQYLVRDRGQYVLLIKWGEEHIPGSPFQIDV

**Q.** For “V5-dPak (Drosophila p21-activated kinase Pak with a V5 tag) (from UniProt Q9VI13 1-704) (enzyme)”, which PLA-positive cells among GFP+ cells (of 973 GFP+ cells) is on record?
**A.** 484
